Test results from patent US20260042834A1 (HBM ALPHA THERAPEUTICS, published 2026).
Residue numbers refer to the chain shown, from its start.

T1: corticotropin-releasing hormone (CRH) peptide (human and mouse (same sequence), not fully specified)
T1 peptide: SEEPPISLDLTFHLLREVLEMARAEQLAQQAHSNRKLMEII

B1: PR302341-51 (antibody, human IgG1, kappa, V domains shown)
VH: QVQLVQSGAEVKKPGASVKVSCKASGYTFTDYFMKWVRQAPGQGLEWMGVINPNQGDIFYNQKFKGRVTMTVDKSTSTAYMELSSLRSEDTAVYYCARGTDRALFAYWGQGTLVTVSS
VL: DVVMTQTPLSSPVTLGQPASISCRSGQSIVHSEGNTYLEWYQQRPGQPPRLLIYKVSNRFSGVPDRFSGSGAGTDFTLKISRVEAEDLGVYYCFQGSHIPWTFGGGTKVEIKR
B2: PR302341-44 (antibody, human IgG1, kappa, V domains shown)
VH: B1 VH with Q55S
VL: B1 VL with E33D
B3: PR302341-48 (antibody, human IgG1, kappa, V domains shown)
VH: B1 VH
VL: B1 VL with E33D, G34A
B4: PR302341-55 (antibody, human IgG1, kappa, V domains shown)
VH: B1 VH with G44R, Q55N, G56A, M70I, V72R, K74T, T76A
VL: B1 VL with T7S, S11L, E33D, P48S, A72S
B5: PR302341-54 (antibody, human IgG1, kappa, V domains shown)
VH: B1 VH
VL: B1 VL with E33S
B6: PR302341-47 (antibody, human IgG1, kappa, V domains shown)
VH: B1 VH with Q55S
VL: B1 VL with E33D, G34A
B7: PR302341-63 (antibody, human IgG1, kappa, V domains shown)
VH: B1 VH with G44R, M70I, V72R, K74T, T76A
VL: B1 VL with T7S, S11L, P48S, A72S
B8: PR302341-52 (antibody, human IgG1, kappa, V domains shown)
VH: B1 VH with Q55N, G56A
VL: B1 VL with E33S
B9: PR302341-62 (antibody, human IgG1, kappa, V domains shown)
VH: B1 VH with G44R, Q55S, M70I, V72R, K74T, T76A
VL: B1 VL with T7S, S11L, P48S, A72S
B10: PR302341-56 (antibody, human IgG1, kappa, V domains shown)
VH: B1 VH with G44R, Q55S, M70I, V72R, K74T, T76A
VL: B1 VL with T7S, S11L, E33D, P48S, A72S
B11: PR302341-59 (antibody, human IgG1, kappa, V domains shown)
VH: B1 VH with G44R, Q55S, M70I, V72R, K74T, T76A
VL: B1 VL with T7S, S11L, E33D, G34A, P48S, A72S
B12: PR302341-45 (antibody, human IgG1, kappa, V domains shown)
VH: B1 VH
VL: B1 VL with E33D
B13: PR302341-64 (antibody, human IgG1, kappa, V domains shown)
VH: B1 VH with G44R, Q55N, G56A, M70I, V72R, K74T, T76A
VL: B1 VL with T7S, S11L, E33S, P48S, A72S
B14: PR302341-46 (antibody, human IgG1, kappa, V domains shown)
VH: B1 VH with Q55N, G56A
VL: B1 VL with E33D, G34A
B15: PR302341-69 (antibody, human IgG1, kappa, V domains shown)
VH: B1 VH with Q55N
VL: B1 VL with E33S
B16: PR302341-61 (antibody, human IgG1, kappa, V domains shown)
VH: B1 VH with G44R, Q55N, G56A, M70I, V72R, K74T, T76A
VL: B1 VL with T7S, S11L, P48S, A72S

Biological target: T1, corticotropin-releasing hormone (CRH) …
Assay: cell-based or functional assay

Binder | hCRHR1 Luciferase Reporter Assay IC50 [nM] | mCrhr1 Luciferase Reporter Assay IC50 [nM] | hCRHR1 Reporter IC50 [nM]
B1 | 1.66 |  | 
B2 | 0.646 |  | 
B3 | 0.507 | 1.46 | 
B4 | 0.105 | 3.19 | 
B5 | 0.732 | 4.09 | 
B6 | 1.04 | 1.6 | 
B7 | 2.05 |  | 
B8 | 0.946 | 3.29 | 
B9 | 2.68 |  | 
B10 | 0.738 |  | 
B11 | 1.04 | 4 | 
B12 | 0.35 | 1.83 | 
B13 | 1.09 |  | 
B14 | 1.27 | 1.52 | 
B15 | 0.552 |  | 
B16 | 1.88 |  | 1.82
